Measured values from the Human Domainome abundance scans (Beltran et al. 2025).
± gives the uncertainty stated by the source.

B1: Friend leukemia integration 1 transcription factor, residues 116 to 197; numbered along this chain, Q01543 (parent)
chain: NMTTNERRVIVPADPTLWTQEHVRQWLEWAIKEYSLMEIDTSFFQNMDGKELCKMNKEDFLRATTLYNTEVLLSHLSYLRES

Variants of: B1
Assay: abundance fitness (aPCA) (normalised: wild type 0, dead -1); higher = more abundant; growth selection in yeast, the domain comes from the species named
Conditions: Homo sapiens

Variant	abundance fitness
NMTTNERRVIVPADPTLWTQEHVRQWLEWAIKEYSLMEIDTSFFQNMDGKELCKMNKEDFLRATTYYNTEVLLSHLSYLRES	-0.036 ± 0.11
NMTTNERRVIVPADPTLWTQEHVRQWLEWAIKEYSLMEIDTSFFQNMDGKELCKMNKEDFLRATTSYNTEVLLSHLSYLRES	0.013 ± 0.074
NMTTNERRVIVPADPTLWTQEHVRQWLEWAIKEYSLMEIDTSFFQNMDGKELCKMNKEDFLRATTPYNTEVLLSHLSYLRES	-0.015 ± 0.11
NMTTNERRVIVPADPTLWTQEHVRQWLEWAIKEYSLMEIDTSFFQNMDGKELCKMNKEDFLRATTIYNTEVLLSHLSYLRES	0.085 ± 0.12
NMTTNERRVIVPADPTLWTQEHVRQWLEWAIKEYSLMEIDTSFFQNMDGKELCKMNKEDFLRATTHYNTEVLLSHLSYLRES	0.008 ± 0.11
NMTTNERRVIVPADPTLWTQEHVRQWLEWAIKEYSLMEIDTSFFQNMDGKELCKMNKEDFLRATTKYNTEVLLSHLSYLRES	-0.038 ± 0.13
NMTTNERRVIVPADPTLWTQEHVRQWLEWAIKEYSLMEIDTSFFQNMDGKELCKMNKEDFLRATTAYNTEVLLSHLSYLRES	-0.021 ± 0.049
NMTTNERRVIVPADPTLWTQEHVRQWLEWAIKEYSLMEIDTSFFQNMDGKELCKMNKEDFLRATTFYNTEVLLSHLSYLRES	-0.574 ± 0.32
NMTTNERRVIVPADPTLWTQEHVRQWLEWAIKEYSLMEIDTSFFQNMDGKELCKMNKEDFLRATTCYNTEVLLSHLSYLRES	-0.039 ± 0.12
NMTTNERRVIVPADPTLWTQEHVRQWLEWAIKEYSLMEIDTSFFQNMDGKELCKMNKEDFLRATTQYNTEVLLSHLSYLRES	-0.066 ± 0.12
NMTTNERRVIVPADPTLWTQEHVRQWLEWAIKEYSLMEIDTSFFQNMDGKELCKMNKEDFLRATTGYNTEVLLSHLSYLRES	-0.108 ± 0.068
NMTTNERRVIVPADPTLWTQEHVRQWLEWAIKEYSLMEIDTSFFQNMDGKELCKMNKEDFLRATTWYNTEVLLSHLSYLRES	0.009 ± 0.087
NMTTNERRVIVPADPTLWTQEHVRQWLEWAIKEYSLMEIDTSFFQNMDGKELCKMNKEDFLRATTTYNTEVLLSHLSYLRES	-0.089 ± 0.14
NMTTNERRVIVPADPTLWTQEHVRQWLEWAIKEYSLMEIDTSFFQNMDGKELCKMNKEDFLRATTVYNTEVLLSHLSYLRES	0.045 ± 0.067
NMTTNERRVIVPADPTLWTQEHVRQWLEWAIKEYSLMEIDTSFFQNMDGKELCKMNKEDFLRATTEYNTEVLLSHLSYLRES	0.016 ± 0.095
NMTTNERRVIVPADPTLWTQEHVRQWLEWAIKEYSLMEIDTSFFQNMDGKELCKMNKEDFLRATVLYNTEVLLSHLSYLRES	-0.966 ± 0.14
NMTTNERRVIVPADPTLWTQEHVRQWLEWAIKEYSLMEIDTSFFQNMDGKELCKMNKEDFLRATLLYNTEVLLSHLSYLRES	-0.615 ± 0.12
NMTTNERRVIVPADPTLWTQEHVRQWLEWAIKEYSLMEIDTSFFQNMDGKELCKMNKEDFLRATALYNTEVLLSHLSYLRES	-0.424 ± 0.11
NMTTNERRVIVPADPTLWTQEHVRQWLEWAIKEYSLMEIDTSFFQNMDGKELCKMNKEDFLRATFLYNTEVLLSHLSYLRES	-1.09 ± 0.37
NMTTNERRVIVPADPTLWTQEHVRQWLEWAIKEYSLMEIDTSFFQNMDGKELCKMNKEDFLRATRLYNTEVLLSHLSYLRES	-0.372 ± 0.069
NMTTNERRVIVPADPTLWTQEHVRQWLEWAIKEYSLMEIDTSFFQNMDGKELCKMNKEDFLRATDLYNTEVLLSHLSYLRES	-0.162 ± 0.14
NMTTNERRVIVPADPTLWTQEHVRQWLEWAIKEYSLMEIDTSFFQNMDGKELCKMNKEDFLRATQLYNTEVLLSHLSYLRES	-0.235 ± 0.091
NMTTNERRVIVPADPTLWTQEHVRQWLEWAIKEYSLMEIDTSFFQNMDGKELCKMNKEDFLRATSLYNTEVLLSHLSYLRES	-0.011 ± 0.067

Variant	abundance fitness
NMTTNERRVIVPADPTLWTQEHVRQWLEWAIKEYSLMEIDTSFFQNMDGKELCKMNKEDFLRATKLYNTEVLLSHLSYLRES	-0.47 ± 0.13
NMTTNERRVIVPADPTLWTQEHVRQWLEWAIKEYSLMEIDTSFFQNMDGKELCKMNKEDFLRATNLYNTEVLLSHLSYLRES	-0.042 ± 0.17
NMTTNERRVIVPADPTLWTQEHVRQWLEWAIKEYSLMEIDTSFFQNMDGKELCKMNKEDFLRATHLYNTEVLLSHLSYLRES	-0.283 ± 0.26
NMTTNERRVIVPADPTLWTQEHVRQWLEWAIKEYSLMEIDTSFFQNMDGKELCKMNKEDFLRATCLYNTEVLLSHLSYLRES	-0.028 ± 0.12
NMTTNERRVIVPADPTLWTQEHVRQWLEWAIKEYSLMEIDTSFFQNMDGKELCKMNKEDFLRATILYNTEVLLSHLSYLRES	-0.908 ± 0.29
NMTTNERRVIVPADPTLWTQEHVRQWLEWAIKEYSLMEIDTSFFQNMDGKELCKMNKEDFLRATGLYNTEVLLSHLSYLRES	-0.058 ± 0.058
NMTTNERRVIVPADPTLWTQEHVRQWLEWAIKEYSLMEIDTSFFQNMDGKELCKMNKEDFLRATPLYNTEVLLSHLSYLRES	-0.085 ± 0.11
NMTTNERRVIVPADPTLWTQEHVRQWLEWAIKEYSLMEIDTSFFQNMDGKELCKMNKEDFLRATWLYNTEVLLSHLSYLRES	-1.03 ± 0.23
NMTTNERRVIVPADPTLWTQEHVRQWLEWAIKEYSLMEIDTSFFQNMDGKELCKMNKEDFLRATTLTNTEVLLSHLSYLRES	-0.006 ± 0.047
NMTTNERRVIVPADPTLWTQEHVRQWLEWAIKEYSLMEIDTSFFQNMDGKELCKMNKEDFLRATTLQNTEVLLSHLSYLRES	0.059 ± 0.092
NMTTNERRVIVPADPTLWTQEHVRQWLEWAIKEYSLMEIDTSFFQNMDGKELCKMNKEDFLRATTLNNTEVLLSHLSYLRES	-0.014 ± 0.23
NMTTNERRVIVPADPTLWTQEHVRQWLEWAIKEYSLMEIDTSFFQNMDGKELCKMNKEDFLRATTLHNTEVLLSHLSYLRES	0.085 ± 0.21
NMTTNERRVIVPADPTLWTQEHVRQWLEWAIKEYSLMEIDTSFFQNMDGKELCKMNKEDFLRATTLENTEVLLSHLSYLRES	0.212 ± 0.08
NMTTNERRVIVPADPTLWTQEHVRQWLEWAIKEYSLMEIDTSFFQNMDGKELCKMNKEDFLRATTLWNTEVLLSHLSYLRES	-0.153 ± 0.092
NMTTNERRVIVPADPTLWTQEHVRQWLEWAIKEYSLMEIDTSFFQNMDGKELCKMNKEDFLRATTLLNTEVLLSHLSYLRES	-0.125 ± 0.057
NMTTNERRVIVPADPTLWTQEHVRQWLEWAIKEYSLMEIDTSFFQNMDGKELCKMNKEDFLRATTLKNTEVLLSHLSYLRES	-0.045 ± 0.11
NMTTNERRVIVPADPTLWTQEHVRQWLEWAIKEYSLMEIDTSFFQNMDGKELCKMNKEDFLRATTLGNTEVLLSHLSYLRES	0.017 ± 0.1
NMTTNERRVIVPADPTLWTQEHVRQWLEWAIKEYSLMEIDTSFFQNMDGKELCKMNKEDFLRATTLDNTEVLLSHLSYLRES	-0.027 ± 0.13
NMTTNERRVIVPADPTLWTQEHVRQWLEWAIKEYSLMEIDTSFFQNMDGKELCKMNKEDFLRATTLSNTEVLLSHLSYLRES	0.074 ± 0.072
NMTTNERRVIVPADPTLWTQEHVRQWLEWAIKEYSLMEIDTSFFQNMDGKELCKMNKEDFLRATTLVNTEVLLSHLSYLRES	0.064 ± 0.078
NMTTNERRVIVPADPTLWTQEHVRQWLEWAIKEYSLMEIDTSFFQNMDGKELCKMNKEDFLRATTLANTEVLLSHLSYLRES	-0.051 ± 0.087
NMTTNERRVIVPADPTLWTQEHVRQWLEWAIKEYSLMEIDTSFFQNMDGKELCKMNKEDFLRATTLMNTEVLLSHLSYLRES	-0.111 ± 0.083
NMTTNERRVIVPADPTLWTQEHVRQWLEWAIKEYSLMEIDTSFFQNMDGKELCKMNKEDFLRATTLPNTEVLLSHLSYLRES	-0.008 ± 0.11

Variant	abundance fitness
NMTTNERRVIVPADPTLWTQEHVRQWLEWAIKEYSLMEIDTSFFQNMDGKELCKMNKEDFLRATTLFNTEVLLSHLSYLRES	-0.219 ± 0.15
NMTTNERRVIVPADPTLWTQEHVRQWLEWAIKEYSLMEIDTSFFQNMDGKELCKMNKEDFLRATTLRNTEVLLSHLSYLRES	0.079 ± 0.061
NMTTNERRVIVPADPTLWTQEHVRQWLEWAIKEYSLMEIDTSFFQNMDGKELCKMNKEDFLRATTLCNTEVLLSHLSYLRES	-0.058 ± 0.12
NMTTNERRVIVPADPTLWTQEHVRQWLEWAIKEYSLMEIDTSFFQNMDGKELCKMNKEDFLRATTLYTTEVLLSHLSYLRES	-0.146 ± 0.078
NMTTNERRVIVPADPTLWTQEHVRQWLEWAIKEYSLMEIDTSFFQNMDGKELCKMNKEDFLRATTLYCTEVLLSHLSYLRES	-0.292 ± 0.11
NMTTNERRVIVPADPTLWTQEHVRQWLEWAIKEYSLMEIDTSFFQNMDGKELCKMNKEDFLRATTLYDTEVLLSHLSYLRES	0.156 ± 0.25
NMTTNERRVIVPADPTLWTQEHVRQWLEWAIKEYSLMEIDTSFFQNMDGKELCKMNKEDFLRATTLYVTEVLLSHLSYLRES	-0.376 ± 0.076
NMTTNERRVIVPADPTLWTQEHVRQWLEWAIKEYSLMEIDTSFFQNMDGKELCKMNKEDFLRATTLYSTEVLLSHLSYLRES	-0.083 ± 0.064
NMTTNERRVIVPADPTLWTQEHVRQWLEWAIKEYSLMEIDTSFFQNMDGKELCKMNKEDFLRATTLYFTEVLLSHLSYLRES	-1.02 ± 0.42
NMTTNERRVIVPADPTLWTQEHVRQWLEWAIKEYSLMEIDTSFFQNMDGKELCKMNKEDFLRATTLYGTEVLLSHLSYLRES	-0.125 ± 0.074
NMTTNERRVIVPADPTLWTQEHVRQWLEWAIKEYSLMEIDTSFFQNMDGKELCKMNKEDFLRATTLYLTEVLLSHLSYLRES	-0.859 ± 0.12
NMTTNERRVIVPADPTLWTQEHVRQWLEWAIKEYSLMEIDTSFFQNMDGKELCKMNKEDFLRATTLYETEVLLSHLSYLRES	-0.022 ± 0.094
NMTTNERRVIVPADPTLWTQEHVRQWLEWAIKEYSLMEIDTSFFQNMDGKELCKMNKEDFLRATTLYRTEVLLSHLSYLRES	-0.547 ± 0.081
NMTTNERRVIVPADPTLWTQEHVRQWLEWAIKEYSLMEIDTSFFQNMDGKELCKMNKEDFLRATTLYATEVLLSHLSYLRES	-0.233 ± 0.083
NMTTNERRVIVPADPTLWTQEHVRQWLEWAIKEYSLMEIDTSFFQNMDGKELCKMNKEDFLRATTLYKTEVLLSHLSYLRES	-0.898 ± 0.32
NMTTNERRVIVPADPTLWTQEHVRQWLEWAIKEYSLMEIDTSFFQNMDGKELCKMNKEDFLRATTLYWTEVLLSHLSYLRES	-0.911 ± 0.16
NMTTNERRVIVPADPTLWTQEHVRQWLEWAIKEYSLMEIDTSFFQNMDGKELCKMNKEDFLRATTLYQTEVLLSHLSYLRES	-0.167 ± 0.089
NMTTNERRVIVPADPTLWTQEHVRQWLEWAIKEYSLMEIDTSFFQNMDGKELCKMNKEDFLRASTLYNTEVLLSHLSYLRES	-0.613 ± 0.16
NMTTNERRVIVPADPTLWTQEHVRQWLEWAIKEYSLMEIDTSFFQNMDGKELCKMNKEDFLRARTLYNTEVLLSHLSYLRES	-0.807 ± 0.075
NMTTNERRVIVPADPTLWTQEHVRQWLEWAIKEYSLMEIDTSFFQNMDGKELCKMNKEDFLRAQTLYNTEVLLSHLSYLRES	-0.1 ± 0.083
NMTTNERRVIVPADPTLWTQEHVRQWLEWAIKEYSLMEIDTSFFQNMDGKELCKMNKEDFLRAWTLYNTEVLLSHLSYLRES	-0.537 ± 0.15
